± gives the standard error. Variants at the floor of the assay were thinned out.
B1: glmS ribozyme (parent)
chain: AUAAAAGCGCCAGAACUACAGAAAUGUAGUUGACGAGGAGGAGGUUUAUCGAAUUUUCGGCGGAUGCCUCCAAA

Assays:
Details in all cases: with glucosamine-6-phosphate
glucosamine-6-phosphate [1] = variants of: B1; experiment: self-cleavage kobs at 640 uM GlcN6P; higher = faster cleavage; RNA array
Outline: (§1)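 A hybridised Cy3 probe tracked barcoded ribozyme variants, transcribed in situ by E. coli RNA polymerase on sequenced MiSeq chips, at 37 °C. The variants received 40 μM to 10 mM glucosamine-6-phosphate in HEPES/KCl/Mg(OAc)2 buffer. kobs came from decay fits and kcat and KM from weighted Michaelis–Menten fits.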

glucosamine-6-phosphate [2] = variants of: B1; experiment: self-cleavage kobs at 2500 uM GlcN6P; higher = faster cleavage; RNA array
Outline: as §1

glucosamine-6-phosphate [3] = variants of: B1; experiment: self-cleavage kobs at 10000 uM GlcN6P; higher = faster cleavage; RNA array
Outline: as §1

Variant | self-cleavage kobs at 640 uM GlcN6P (glucosamine-6-phosphate [1]) [s⁻¹] | self-cleavage kobs at 2500 uM GlcN6P (glucosamine-6-phosphate [2]) [s⁻¹] | self-cleavage kobs at 10000 uM GlcN6P (glucosamine-6-phosphate [3]) [s⁻¹]
A15G A36U G41U C70U | < 1e-05 | < 1e-05 | –
A14U G29U U56G | 0.000178 ± 4.1e-05 | 0.000206 ± 7.4e-05 | –
A14C U46G G66A | 0.000298 ± 5.1e-05 | 0.000166 ± 3.6e-05 | –
G13A G44C U54G | < 1e-05 | – | –
G13U G29C G60A U69C C70U | < 1e-05 | – | –
A15G U31A U47G | 0.000471 ± 0.00011 | 0.00142 ± 0.0005 | –
G13U A14G G29C U49A | < 1e-05 | – | –
A15C C34U G66C | < 1e-05 | < 1e-05 | –
C16G A48U C50G C70A | 5.34e-05 ± 2.6e-05 | – | –
A15G A42U C71U | 7.41e-05 ± 1.8e-05 | 0.000188 ± 5.3e-05 | –
C16U U57G C68U | 3.89e-05 ± 1.6e-05 | – | –
G13A U30G G41U U46C G63C | < 1e-05 | < 1e-05 | –
A15G G40U C50G G60C | < 1e-05 | – | –
A12U A48C C58A | < 1e-05 | < 1e-05 | –
A15U A33G G44U A48U | < 1e-05 | < 1e-05 | < 1e-05
A12G G29A A36G U49C U57G C70A | < 1e-05 | – | –
A12U A52U G60A | < 1e-05 | – | –
A12G A48U G63U | < 1e-05 | – | –
A12U C34G G51U U57A U65G | < 1e-05 | – | –
C16U A33U U49A | < 1e-05 | < 1e-05 | –
A14C G44C U55C | < 1e-05 | – | –
A14U G26A C68G | 5e-05 ± 2e-05 | 4.16e-05 ± 1.8e-05 | –

Variant | self-cleavage kobs at 640 uM GlcN6P (glucosamine-6-phosphate [1]) [s⁻¹] | self-cleavage kobs at 2500 uM GlcN6P (glucosamine-6-phosphate [2]) [s⁻¹] | self-cleavage kobs at 10000 uM GlcN6P (glucosamine-6-phosphate [3]) [s⁻¹]
A15C G37A A42G | 8.69e-05 ± 3e-05 | 0.000171 ± 4.6e-05 | –
A14U A48U G51A A52G | < 1e-05 | < 1e-05 | –
C16U G32C G35A C68A | < 1e-05 | < 1e-05 | –
A14C U56G C68A | 9.34e-05 ± 3.4e-05 | 8.68e-05 ± 2.2e-05 | –
A15G U30A C67A C70U | 0.000654 ± 0.00016 | 9.99e-05 ± 4.6e-05 | 0.00115 ± 0.00026
A14U G43C | < 1e-05 | < 1e-05 | < 1e-05
A15U C58U U69A | 0.000113 ± 2.4e-05 | 0.000115 ± 3.3e-05 | –
A12U A48G U49G | 6.79e-05 ± 3.2e-05 | – | –
A14G A42C G63U | < 1e-05 | – | –
A14G A15G C34G U69A | 0.000303 ± 0.00014 | – | –
C16A U54C G59U | < 1e-05 | – | –
A14C A36G U49C | < 1e-05 | < 1e-05 | –
G13U C50G C67G | 0.000305 ± 0.00014 | 7.52e-05 ± 1.5e-05 | –
A15G C34A A64C | < 1e-05 | – | –
G13A C34A C67U C70G | < 1e-05 | < 1e-05 | –
A15G A48U C70G | 5.16e-05 ± 1.9e-05 | 6.9e-05 ± 1.6e-05 | –
C16G A36G G40A G63U | < 1e-05 | < 1e-05 | –
G13U A64G U65G | 8.37e-05 ± 3e-05 | 5.07e-05 ± 1.7e-05 | –
A14G G38U G66A | < 1e-05 | – | –
A12U U46C A52G A53G | 0.000183 ± 4.4e-05 | 0.00036 ± 8.9e-05 | –
G13C A33G G40U U49G G63A | < 1e-05 | – | –
A12U C67G C70U | 0.000172 ± 3.8e-05 | 0.000623 ± 0.00017 | –

Variant | self-cleavage kobs at 640 uM GlcN6P (glucosamine-6-phosphate [1]) [s⁻¹] | self-cleavage kobs at 2500 uM GlcN6P (glucosamine-6-phosphate [2]) [s⁻¹] | self-cleavage kobs at 10000 uM GlcN6P (glucosamine-6-phosphate [3]) [s⁻¹]
A15G U45A A53G | 0.0131 ± 0.0027 | – | –
A14C A15C A39U G40U U49C | < 1e-05 | – | –
A14U G38A A53G | < 1e-05 | – | –
A12C G35A C70U | < 1e-05 | < 1e-05 | –
A14U G29C A48G U65A | < 1e-05 | – | –
G13U A14U G35C U46A G51U U65A | < 1e-05 | – | –
A15U A33U C70U | < 1e-05 | – | –
G13A G59A G62A | < 1e-05 | – | –
G13C A42U U57A G63C | < 1e-05 | < 1e-05 | –
A12C G13U A36U | < 1e-05 | < 1e-05 | –
G13U A15G G51C | < 1e-05 | < 1e-05 | –
A14G G29U U30G A33C C61G G66U | < 1e-05 | < 1e-05 | –
G13C A14C C71U | 4.16e-05 ± 1.1e-05 | 0.000105 ± 1.7e-05 | –
G13U C16U G29A | 0.000601 ± 0.00017 | – | –
G21U C70G | 0.000253 ± 5.1e-05 | 0.000154 ± 3.9e-05 | 9.23e-05 ± 2.3e-05
C16G G44U G51U C61U | < 1e-05 | < 1e-05 | –
C19A A48U | 6.44e-05 ± 2.3e-05 | – | –
G13C A15C C61U A64U C67A | < 1e-05 | – | –
A12U U47G A52U C61U | < 1e-05 | – | –
A12G A36C A39C C71G | < 1e-05 | < 1e-05 | –
A12C G29C A42C | < 1e-05 | – | –
